Tested on: MS2 coat protein
Test: apparent KD of MS2 coat protein; higher = weaker reporter binding
Settings: Eterna round: R107
In short: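 Apparent KD was obtained for each design as the median of normalised binding-curve fits over its clusters. RNA switches transcribed on-chip from Illumina sequencing clusters were titrated with SNAP-549-labelled MS2 coat protein (twofold steps, 0.7 or 1.5 nM to 3 µM) in 100 mM Tris-HCl pH 7.5, 80 mM KCl, 4 mM MgCl2, without or with constant ligand.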

[1] = input ligand: theophylline 20 uM
[2] = input ligand: theophylline 2 mM
[3] = input ligand: tryptophan 2.4 mM

Sequence | apparent KD of MS2 coat protein (input ligand: arginine 13.2 mM) | apparent KD of MS2 coat protein [1] | apparent KD of MS2 coat protein [2] | apparent KD of MS2 coat protein [3] | apparent KD of MS2 coat protein (input ligand: none)
CUACAUUUGUAGAAACCGGUCAACAAUAAUCGAGGACCGGUACGGCCGCCACUCGAUGUGAAAUACACAUGAGGAUCACCCAUGU [Tryptophan A 13] | 0.0158 µM | 0.0191 µM | 0.0199 µM | – | –
GCUGUGAAGUCGGCCGCCACUGGUUAGUUUUACCUCAUGUAACAUGAGGAUCACCCAUGUAAUUUCAGGACCGGGACAACAGCAA [JR_ExcTryptoB_Sub017] | 0.135 µM | 0.588 µM | 0.853 µM | – | –
UUUACAUGAGGAUCACCCAUGUGCCAUGAUACCAGACAUGAAAAUGUCCCUUGGCAGCAUGAGUGAUUCAUCCGAAAGGAUGUUU [Jehnice] | 0.114 µM | 0.146 µM | – | 0.103 µM | –
AAAAUAUAGACGGCCGCCACUAUAAUCAUGAGGAACAUGAGGAUCACCCAUGUAUGAGGAUCACCUAGGACCGGGUCAUAUAAAA [#24 Exclusion Tryptophan B] | 0.0142 µM | 0.0313 µM | 0.0295 µM | 0.0256 µM | 0.0236 µM
AAACAUGACAUGGAUACCAGACACAUGAGGAUCACCCAUGUUGAGGAUCACCCAUGUCCCGUCCCUUGGCAGCCAGCAUGAGGAU [Exclusion Theophylline B 2] | 0.00896 µM | 0.0116 µM | – | 0.00883 µM | –
GGGUACAUCGCGGCCGCCACUCAUGUAAAUGCAUGAGGAUCACCCAUGCCGAUGGAGACAUCGGAGAGGACCGGGUGAUGUACCG | 0.0418 µM | 0.0687 µM | 0.0711 µM | 0.0336 µM | 0.0458 µM
GGCACCAGGAGAAGGAGCGUGAAGACAUGAGGAUCACCCAUGUAGAGGCCCGUACUGGGUUCGCAGGUAGGUCGCUCCUGGUGCC [#1 Same State - Arginine B Attempt #13 (HarryS)] | 0.0221 µM | 0.0392 µM | 0.0287 µM | 0.0299 µM | 0.0229 µM
ACAUGAGGAUCACCCAUGUGAAGCAGGGUACGAGGACCGGUACGGCCGCCACUCGAGGAUUAUGCCGAGUGAAUGGCAACGAUGU [whbob_Ex_trypto A_2s19] | – | 0.0227 µM | 0.0162 µM | – | –
AGCACUGUGACGGCCGCCACUAUAUAUAGGGUGGUCAGGUUCAUAAUACAUGAGGAUCACCCAUGUAGGACCGGGUCUCAGUGCA [Omei Trp Exc B A v4] | 0.0145 µM | 0.0149 µM | 0.0109 µM | 0.014 µM | 0.012 µM
CAGAGACAUGAGGAUCACCCAUGUUGAGAUACCAGCUUGGUAUCGAGCCCUUGGCAGCUCGCCCAUCGUCUAUAUCAGCCUGAGC [theeternabot_sameState_MS2_Theo_A_40] | 0.017 µM | 0.0189 µM | – | 0.0168 µM | –
CUAUAUAUAGCGGCCGCCACUUACUCAUGAGGUAACAACAUGAGGAUCACCCAUGUUUGAGGAUCAAGGACCGGGCUAUAUAUAG [AstrosSSTryB#4] | 0.0281 µM | 0.0335 µM | 0.0332 µM | – | –
UUAUCUAUAUUCGAUACCAGUACCCUGGCCGCAAAUCCUAACAUGAGGAUCACCCAUGUGUACCCUUGGCAGCGGGUAUGGGUUU [XTheo B #29] | 0.0215 µM | 0.0351 µM | – | 0.0242 µM | –
UUGGCACGGACGGCCGCCACUCUUUCACAUGAGGAUCACCCAUGUUAUCUAGUCCUCAGCAGAAAGAGGACCGGGUCGGAGUUGG [theeternabot_exclusion_MS2_Trp_B_13] | 0.0751 µM | 0.168 µM | 0.214 µM | – | –
CUCUCAUGAACAUGAGGAUCACCCAUGUAACGAGGACCGGUACGGCCGCCACUCGAACGUGGAAACCAAUCGAGUGAGGUGGGAG [Tryp A Ex t5b] | 0.0459 µM | 0.0984 µM | 0.119 µM | 0.352 µM | 0.116 µM
UGUAUGGACUGAAGGAGCGGGAAAUAAACUUGAGGAUCACCCAGGUAAUAGGCGAAAGCCACCCAGGUAGGUCGCAGUCCAUACU | 0.022 µM | 0.0385 µM | 0.0457 µM | 0.0285 µM | 0.0243 µM
AAAUGAAGGCGAAGGAGCGCGAACAUGAGGAUCACCCAUGUGUAUGUAUGUAGUCAUGUAUCGCAGGUAGGUCGCGCUGUUACAU [Exclusion Arginine B] | 0.106 µM | 0.276 µM | 0.352 µM | 0.271 µM | 0.278 µM
GCGGAAUAAUCGGCCGCCACUAUGAUAUAGGAAACUAUAACAUGAGGAUCACCCAUGUAUCCUCAUAGGACCGGGAUUAAAACGC [TrypB - CS] | 0.0397 µM | 0.121 µM | 0.101 µM | – | –
UAAUGCAGGUCGGCCGCCACUACAAACAUGAGGAUCACCCAUGUAGUUACUGGGUGAAGUGGCAGUAGGACCGGGACCUGCAUAA [Trp-Ms2-T'-M'-T''_Design1] | 0.102 µM | 0.602 µM | 1.04 µM | – | –
UGAUACCAGUCGGCCGCCACUAUGCUAGAUACUAGCAAUAAAUGGGAACAUGAGGAUCACCCAUGUAGGACCGGGACUGGUAUCU | 0.0321 µM | 0.0429 µM | 0.0427 µM | 0.064 µM | 0.0336 µM
